B1: S. cerevisiae Abp1 (full length; SH3 domain 535-592 mutated) / Hua2 (parent complex)
chain 1: MALEPIDYTTHSREIDAEYLKIVRGSDPDTTWLIISPNAKKEYEPESTGSSFHDFLQLFDETKVQYGLARVSPPGSDVEKIIIIGWCPDSAPLKTRASFAANFAAVANNLFKGYHVQVTARDEDDLDENELLMKISNAAGARYSIQTSSKQQGKASTPPVKKSFTPSKSPAPVSKKEPVKTPSPAPAAKISSRVNDNNDDDDWNEPELKERDFDQAPLKPNQSSYKPIGKIDLQKVIAEEKAKEDPRLVQKPTAAGSKIDPSSDIANLKNESKLKRDSEFNSFLGTTKPPSMTESSLKNDDDKVIKGFRNEKSPAQLWAERKAKQNSGNAETKAEAPKPEVPEDEPEGEPDVKDLKSKFEGLAASEKEEEEMENKFAPPPKKSEPTIISPKPFSKPQEPVKAEEAEQPKTDYKKIGNPLPGMHIEADNEEEPEENDDDWDDDEDEAAQPPLPSRNVASGAPVQKEEPEQEEIAPSLPSRNSIPAPKQEEAPEQAPEEEIEEEAEEAAPQLPSRSSAAPPPPPRRATPEKKPKENPWATAEYDYDAAEDNELTFVENDKIINIEFVDDDWWLGELEKDGSKGLFPSNYVSLGN
chain 2: MQQTKFGKMYLDHDSVVEYSEDEIVEADRITLGYKKRLSMIENQMRHLLEDFSLDVQQIEPILADLQKYYDAFLQLLQKRNKSLQCKRSTHQPVPSPMNSQTSTNAKVNLSGKLMKFQLNSVQKFDEENILRILQNKIEFEHYFQIDKGKKQKVLLLAVYQCLNGPTRLHKVLNIEGIIHNNSIRTILGKQVSSSKWTVFLYDVKLVLLAHRQDVPNLETSKMIVRYGDLFPCALYFKDHTAY

Variants of: B1
Assay: DHFR protein-fragment complementation in yeast (Abp1-DHFR F[1,2] x partner-DHFR F[3]), deep mutational scanning, second methotrexate selection vs reference; S. cerevisiae, DHFR-PCA selection in liquid with methotrexate at 30 C, two 72 h selections (the score uses the second); reference = the pre-selection culture

Point of comparison: chain 1 L590I, screen value 0.43 DMS score: mean over two replicates of log2(f_test/f_ref + 0.5)/ln 2, minus the synonymous-codon median (not a log2 …. Against it:
- chain 1 N592V — lower, 0.252 DMS score: mean over two replicates of log2(f_test/f_ref + 0.5)/ln 2, minus the synonymous-codon median (not a log2 …
- chain 1 N592I — lower, 0.311 DMS score: mean over two replicates of log2(f_test/f_ref + 0.5)/ln 2, minus the synonymous-codon median (not a log2 …
- chain 1 N592Y — lower, 0.405 DMS score: mean over two replicates of log2(f_test/f_ref + 0.5)/ln 2, minus the synonymous-codon median (not a log2 …
- chain 1 N592K — lower, -0.463 DMS score: mean over two replicates of log2(f_test/f_ref + 0.5)/ln 2, minus the synonymous-codon median (not a log2 …
- chain 1 N592L — higher, 0.472 DMS score: mean over two replicates of log2(f_test/f_ref + 0.5)/ln 2, minus the synonymous-codon median (not a log2 …
- chain 1 N592P — higher, 0.755 DMS score: mean over two replicates of log2(f_test/f_ref + 0.5)/ln 2, minus the synonymous-codon median (not a log2 …
- chain 1 G591K — higher, 0.45 DMS score: mean over two replicates of log2(f_test/f_ref + 0.5)/ln 2, minus the synonymous-codon median (not a log2 …
- chain 1 G591L — lower, -0.124 DMS score: mean over two replicates of log2(f_test/f_ref + 0.5)/ln 2, minus the synonymous-codon median (not a log2 …
- chain 1 G591F — lower, 0.26 DMS score: mean over two replicates of log2(f_test/f_ref + 0.5)/ln 2, minus the synonymous-codon median (not a log2 …
- chain 1 A546Q — higher, 1.19 DMS score: mean over two replicates of log2(f_test/f_ref + 0.5)/ln 2, minus the synonymous-codon median (not a log2 …
- chain 1 A546Y — lower, -0.447 DMS score: mean over two replicates of log2(f_test/f_ref + 0.5)/ln 2, minus the synonymous-codon median (not a log2 …
- chain 1 A546R — lower, -1.4 DMS score: mean over two replicates of log2(f_test/f_ref + 0.5)/ln 2, minus the synonymous-codon median (not a log2 …
- chain 1 A546F — lower, -0.502 DMS score: mean over two replicates of log2(f_test/f_ref + 0.5)/ln 2, minus the synonymous-codon median (not a log2 …
- chain 1 A546M — lower, -0.41 DMS score: mean over two replicates of log2(f_test/f_ref + 0.5)/ln 2, minus the synonymous-codon median (not a log2 …
- chain 1 D542R — lower, -0.244 DMS score: mean over two replicates of log2(f_test/f_ref + 0.5)/ln 2, minus the synonymous-codon median (not a log2 …
- chain 1 D542H — lower, -0.15 DMS score: mean over two replicates of log2(f_test/f_ref + 0.5)/ln 2, minus the synonymous-codon median (not a log2 …
- chain 1 D542T — higher, 0.719 DMS score: mean over two replicates of log2(f_test/f_ref + 0.5)/ln 2, minus the synonymous-codon median (not a log2 …
- chain 1 K558R — higher, 0.719 DMS score: mean over two replicates of log2(f_test/f_ref + 0.5)/ln 2, minus the synonymous-codon median (not a log2 …
- chain 1 K558A — lower, -0.817 DMS score: mean over two replicates of log2(f_test/f_ref + 0.5)/ln 2, minus the synonymous-codon median (not a log2 …
- chain 1 K558M — lower, -0.491 DMS score: mean over two replicates of log2(f_test/f_ref + 0.5)/ln 2, minus the synonymous-codon median (not a log2 …
- chain 1 K558V — higher, 0.774 DMS score: mean over two replicates of log2(f_test/f_ref + 0.5)/ln 2, minus the synonymous-codon median (not a log2 …
- chain 1 E555C — lower, -0.0642 DMS score: mean over two replicates of log2(f_test/f_ref + 0.5)/ln 2, minus the synonymous-codon median (not a log2 …
- chain 1 E555V — lower, -0.0654 DMS score: mean over two replicates of log2(f_test/f_ref + 0.5)/ln 2, minus the synonymous-codon median (not a log2 …
- chain 1 E555T — higher, 0.557 DMS score: mean over two replicates of log2(f_test/f_ref + 0.5)/ln 2, minus the synonymous-codon median (not a log2 …
- chain 1 E555L — lower, -0.165 DMS score: mean over two replicates of log2(f_test/f_ref + 0.5)/ln 2, minus the synonymous-codon median (not a log2 …
- chain 1 E555K — lower, 0.347 DMS score: mean over two replicates of log2(f_test/f_ref + 0.5)/ln 2, minus the synonymous-codon median (not a log2 …
- chain 1 N561H — lower, -0.956 DMS score: mean over two replicates of log2(f_test/f_ref + 0.5)/ln 2, minus the synonymous-codon median (not a log2 …
- chain 1 W536H — lower, -0.883 DMS score: mean over two replicates of log2(f_test/f_ref + 0.5)/ln 2, minus the synonymous-codon median (not a log2 …
- chain 1 W536E — lower, -0.841 DMS score: mean over two replicates of log2(f_test/f_ref + 0.5)/ln 2, minus the synonymous-codon median (not a log2 …
- chain 1 W569Y — lower, -0.138 DMS score: mean over two replicates of log2(f_test/f_ref + 0.5)/ln 2, minus the synonymous-codon median (not a log2 …
- chain 1 L574T — lower, -0.934 DMS score: mean over two replicates of log2(f_test/f_ref + 0.5)/ln 2, minus the synonymous-codon median (not a log2 …
- chain 1 L574C — lower, -0.496 DMS score: mean over two replicates of log2(f_test/f_ref + 0.5)/ln 2, minus the synonymous-codon median (not a log2 …
- chain 1 L574I — lower, -0.989 DMS score: mean over two replicates of log2(f_test/f_ref + 0.5)/ln 2, minus the synonymous-codon median (not a log2 …
- chain 1 E540S — lower, -1.11 DMS score: mean over two replicates of log2(f_test/f_ref + 0.5)/ln 2, minus the synonymous-codon median (not a log2 …
- chain 1 E540R — lower, -2.88 DMS score: mean over two replicates of log2(f_test/f_ref + 0.5)/ln 2, minus the synonymous-codon median (not a log2 …
- chain 1 E540G — lower, -1.94 DMS score: mean over two replicates of log2(f_test/f_ref + 0.5)/ln 2, minus the synonymous-codon median (not a log2 …
- chain 1 E540Q — lower, -1.08 DMS score: mean over two replicates of log2(f_test/f_ref + 0.5)/ln 2, minus the synonymous-codon median (not a log2 …
- chain 1 E540Y — lower, -2.86 DMS score: mean over two replicates of log2(f_test/f_ref + 0.5)/ln 2, minus the synonymous-codon median (not a log2 …
- chain 1 E540N — lower, -1.77 DMS score: mean over two replicates of log2(f_test/f_ref + 0.5)/ln 2, minus the synonymous-codon median (not a log2 …
- chain 1 E540D — higher, 0.44 DMS score: mean over two replicates of log2(f_test/f_ref + 0.5)/ln 2, minus the synonymous-codon median (not a log2 …
- chain 1 E540T — lower, -0.981 DMS score: mean over two replicates of log2(f_test/f_ref + 0.5)/ln 2, minus the synonymous-codon median (not a log2 …
- chain 1 P535Y — higher, 0.518 DMS score: mean over two replicates of log2(f_test/f_ref + 0.5)/ln 2, minus the synonymous-codon median (not a log2 …
- chain 1 P535G — lower, -0.0677 DMS score: mean over two replicates of log2(f_test/f_ref + 0.5)/ln 2, minus the synonymous-codon median (not a log2 …
- chain 1 P535N — higher, 0.729 DMS score: mean over two replicates of log2(f_test/f_ref + 0.5)/ln 2, minus the synonymous-codon median (not a log2 …
- chain 1 P535F — lower, 0.0686 DMS score: mean over two replicates of log2(f_test/f_ref + 0.5)/ln 2, minus the synonymous-codon median (not a log2 …
- chain 1 P535C — higher, 1.46 DMS score: mean over two replicates of log2(f_test/f_ref + 0.5)/ln 2, minus the synonymous-codon median (not a log2 …
- chain 1 L571S — lower, -0.425 DMS score: mean over two replicates of log2(f_test/f_ref + 0.5)/ln 2, minus the synonymous-codon median (not a log2 …
- chain 1 L571V — lower, -0.465 DMS score: mean over two replicates of log2(f_test/f_ref + 0.5)/ln 2, minus the synonymous-codon median (not a log2 …
- chain 1 L571N — lower, -0.368 DMS score: mean over two replicates of log2(f_test/f_ref + 0.5)/ln 2, minus the synonymous-codon median (not a log2 …
- chain 1 L571T — lower, -0.86 DMS score: mean over two replicates of log2(f_test/f_ref + 0.5)/ln 2, minus the synonymous-codon median (not a log2 …
- chain 1 L571I — lower, -0.705 DMS score: mean over two replicates of log2(f_test/f_ref + 0.5)/ln 2, minus the synonymous-codon median (not a log2 …
- chain 1 L571H — higher, 0.744 DMS score: mean over two replicates of log2(f_test/f_ref + 0.5)/ln 2, minus the synonymous-codon median (not a log2 …
- chain 1 L571K — lower, -0.248 DMS score: mean over two replicates of log2(f_test/f_ref + 0.5)/ln 2, minus the synonymous-codon median (not a log2 …
- chain 1 Y541A — lower, -1.6 DMS score: mean over two replicates of log2(f_test/f_ref + 0.5)/ln 2, minus the synonymous-codon median (not a log2 …
- chain 1 A539V — lower, -0.172 DMS score: mean over two replicates of log2(f_test/f_ref + 0.5)/ln 2, minus the synonymous-codon median (not a log2 …
- chain 1 S585N — lower, -0.135 DMS score: mean over two replicates of log2(f_test/f_ref + 0.5)/ln 2, minus the synonymous-codon median (not a log2 …
- chain 1 V554Q — higher, 0.94 DMS score: mean over two replicates of log2(f_test/f_ref + 0.5)/ln 2, minus the synonymous-codon median (not a log2 …
- chain 1 D567Q — lower, -2.97 DMS score: mean over two replicates of log2(f_test/f_ref + 0.5)/ln 2, minus the synonymous-codon median (not a log2 …
- chain 1 D567H — lower, -2.08 DMS score: mean over two replicates of log2(f_test/f_ref + 0.5)/ln 2, minus the synonymous-codon median (not a log2 …
- chain 1 N549W — lower, -2.49 DMS score: mean over two replicates of log2(f_test/f_ref + 0.5)/ln 2, minus the synonymous-codon median (not a log2 …
- chain 1 N549F — lower, 0.0612 DMS score: mean over two replicates of log2(f_test/f_ref + 0.5)/ln 2, minus the synonymous-codon median (not a log2 …
- chain 1 N549T — higher, 1.38 DMS score: mean over two replicates of log2(f_test/f_ref + 0.5)/ln 2, minus the synonymous-codon median (not a log2 …
- chain 1 N549P — lower, -0.774 DMS score: mean over two replicates of log2(f_test/f_ref + 0.5)/ln 2, minus the synonymous-codon median (not a log2 …
- chain 1 N549M — higher, 1.68 DMS score: mean over two replicates of log2(f_test/f_ref + 0.5)/ln 2, minus the synonymous-codon median (not a log2 …
- chain 1 D544C — higher, 1.15 DMS score: mean over two replicates of log2(f_test/f_ref + 0.5)/ln 2, minus the synonymous-codon median (not a log2 …
- chain 1 D544R — higher, 0.711 DMS score: mean over two replicates of log2(f_test/f_ref + 0.5)/ln 2, minus the synonymous-codon median (not a log2 …
- chain 1 D544S — lower, 0.42 DMS score: mean over two replicates of log2(f_test/f_ref + 0.5)/ln 2, minus the synonymous-codon median (not a log2 …
- chain 1 L590V — lower, -0.52 DMS score: mean over two replicates of log2(f_test/f_ref + 0.5)/ln 2, minus the synonymous-codon median (not a log2 …
- chain 1 L590M — lower, -0.242 DMS score: mean over two replicates of log2(f_test/f_ref + 0.5)/ln 2, minus the synonymous-codon median (not a log2 …
- chain 1 N556Q — lower, -0.244 DMS score: mean over two replicates of log2(f_test/f_ref + 0.5)/ln 2, minus the synonymous-codon median (not a log2 …
- chain 1 N556F — lower, -0.0258 DMS score: mean over two replicates of log2(f_test/f_ref + 0.5)/ln 2, minus the synonymous-codon median (not a log2 …
- chain 1 N556R — lower, 0.377 DMS score: mean over two replicates of log2(f_test/f_ref + 0.5)/ln 2, minus the synonymous-codon median (not a log2 …
- chain 1 N556E — lower, -0.0705 DMS score: mean over two replicates of log2(f_test/f_ref + 0.5)/ln 2, minus the synonymous-codon median (not a log2 …
- chain 1 F553M — higher, 0.868 DMS score: mean over two replicates of log2(f_test/f_ref + 0.5)/ln 2, minus the synonymous-codon median (not a log2 …
